Data published in patent US20140199709A1.

Biological target: human mast cell β-tryptase (human) (UniProt Q15661)
Test: sandwich ELISA, luminescence (CSPD): rabbit anti-human tryptase coated as capture, human tryptase titrated, AP-labeled G3 as detection; EC50 is of the tryptase concentration

Chain of UniProt Q15661 (Q15661 31-275 limits assumed): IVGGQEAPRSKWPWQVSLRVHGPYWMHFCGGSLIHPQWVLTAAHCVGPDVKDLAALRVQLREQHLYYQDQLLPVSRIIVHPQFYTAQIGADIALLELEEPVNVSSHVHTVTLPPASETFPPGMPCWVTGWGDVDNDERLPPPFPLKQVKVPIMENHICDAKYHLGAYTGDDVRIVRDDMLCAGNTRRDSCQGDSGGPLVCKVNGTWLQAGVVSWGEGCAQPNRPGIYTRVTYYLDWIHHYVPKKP

EC50: 0.065 µg/mL
Substance: anti-tryptase antibody G3 (sc-33676; Santa Cruz Biotechnology, Inc.), alkaline phosphatase conjugated
